In patent US20260226158A1:

Target: human NKp46 on human NKp46-expressing CHO-K1 cells (human) (UniProt O76036)
Experiment: flow cytometry on human NKp46-expressing CHO-K1 cells, Alexa Fluor 647 anti-human IgG; upper row of the box

human NKp46 on human NKp46-expressing CHO-K1 cells (human), sequence (O76036 22-304): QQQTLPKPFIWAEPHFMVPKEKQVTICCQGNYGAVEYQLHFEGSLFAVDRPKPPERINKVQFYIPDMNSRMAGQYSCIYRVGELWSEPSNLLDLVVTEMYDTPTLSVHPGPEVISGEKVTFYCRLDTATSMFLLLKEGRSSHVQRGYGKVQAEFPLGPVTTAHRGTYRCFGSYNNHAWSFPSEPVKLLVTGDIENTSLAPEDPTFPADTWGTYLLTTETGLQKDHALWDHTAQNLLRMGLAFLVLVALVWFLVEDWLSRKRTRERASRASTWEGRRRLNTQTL

Human IgG (antibody) was tested, and the Geometric Mean : Alexa Fluor 647-H was 206.
